Values quoted from earlier work as cited in PMC4089558.

Biological target: CFP10 (Mycobacterium tuberculosis) (UniProt P9WNK5)
Sequence (P9WNK5 2-100): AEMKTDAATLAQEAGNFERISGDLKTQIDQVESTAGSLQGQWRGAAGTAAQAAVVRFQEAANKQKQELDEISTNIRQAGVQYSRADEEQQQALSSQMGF

ESAT-6, sequence (P9WNK7 2-95): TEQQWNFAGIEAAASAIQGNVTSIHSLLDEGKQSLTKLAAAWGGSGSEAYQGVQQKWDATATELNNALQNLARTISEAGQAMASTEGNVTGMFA

ESAT-6 (from UniProt P9WNK7)
Kd: 11 nM
